Measured values: the DeepSol protein solubility set

Assay: soluble on expression in E. coli; label from the status in PepcDB or PDB records

Sequence	soluble on expression in E. coli
MAHHHHHHMVSMIVAGATGAIGRTVVQYAIQQPSIDRVVALTRFRNTAVSNYENLFGIIVAGEAGNTDSRGDGANSKRKKGSGSPAGTVTATPAEAAKIRPITMDWEEFTQLWVAKRSSTSAAASGADNCAAGAAATAITDPTERYRGIFGGHTYAAMCLGTTRKDAGSAKSFTRCDYDYVMAFTEAVLAYSAPAGLSPAKAFVHHIGDGGASKQVHVQEGMGKEVDVLAAMNANAAQSSGTLRVFCQVSSSNASSSSWFLYMQTKGIADESTVERVHRHNKCATAAAALSPVNLLLLQPGLLERHGKTRATEKFAKLIMSSIPVETCGAAIVSACKSLPIQHSVQRAETTSAAEQAKHDEVEGAQVEKENNTVAAGVRKTPLGKPYVATKALCKAGMPPNEPLPYIYAANNAVITDLASRLTA	not soluble
MSVATGSSETAGGASGGGARVFFQSPRGGAGGSPGSSSGSGSSREDSAPVATAAAAGQVQQQQQRRHQQGKVTVKYDRKELRKRLVLEEWIVEQLGQLYGCEEEEMPEVEIDIDDLLDADSDEERASKLQEALVDCYKPTEEFIKELLSRIRGMRKLSPPQKKSV	soluble
MGSDKIHHHHHHMAPRTKTRERIVQASLELFNQQGERCITTNHIAAHMEISPGNLYYHFANKQVIIAELFTQYETLVGSFLTLRTDRLPTIEDKRDYFLAMIDAMWRYRFLHQDLEHLLTSDAELARRYRRFSYRCLMQAMNIYRGFIKAGILQMDESQIEWTSLNTWIVLTSWVRFLCTNRENNAELNESAIRRGVYQVLMLESVFVAPQAREAFDALCETFHSSLPEALA	not soluble
MEEDSIHLPTHLRLQPIYWSRDDVAQWLKWAENEFSLRPIESNKFEMNGKALLLLTKEDFRYRSPHSGDVLYELLQHILKQRKSRMLFSPFFPPGDSIHTKPEVLLHQNHDEDNCVQRTPRTPAESVHHNPPTIELLHRPRSPITTNHRPSPDPEQQRPQRSPLDNMSRRLSPVEKAQGPRLQQENNHQETYPLSVSPVENNHCLPSSPWQESTRVIQLMPSPIMHPLILNPRHSHSVDFKQSRHSEDGMNREGKPINLSHREDLAYLNHIMVSMSPPEEHAMPIGRIADCRLLWDYVYQLLSDSRYENFIRWEDKESKIFRIVDPNGLARLWGNHKNRTNMTYEKMSRALRHYYKLNIIRKEPGQRLLFRFMKTPDEIMSGRTDRLEHLESQVLDEQTYQEDEPTIASPVGWPRGNLPTGTAGGVMEAGELGVAVKEETRE	soluble
MHPRFQTAFAQLADNLQSALAPILADHHFPAMLTAEQVSTLKNTAGLDEDALAFALLPLAAACARTDLSHFNVGAIARGVSGNWYFGANMEFLGATMQQTVHAEQSAISHAWLRGEKGLAAVTVNYTPCGHCRQFMNELNSGLDLRIHLPGRAPHTLRDYLPDAFGPKDLEIKTLLMDEQDHGFTLTGDTLTQAAITAANKSHMPYSHSPSGVALECKDGRIFTGSYAENAAFNPTLPPLQGALNLLSLNGYDYADIQRAILAEKGDAALIQWDATAATLKALGCHNIDRVLLG	not soluble
MCSAGGIRRPIQIEEFKTAISGMSDMELAQIKTEIENSINHLQRSNARLGKYIAKLEGADDRLEADDSDDLENIDSGDLALYKDSVRENEIVLNNYNERVDALEQETVYRKTGHGKSKHEVEAKDNTNKGPDVDMDNSNVDVVTPNSIFI	soluble
MAGPSDRTFSDQTEEIMQATYRALREHGYADLTIQRIADEYGKSTAAVHYYYDTKDDLLAAFLDYLLERFVDSIHDVETTDPEARLNLLLDELLVKPQENPDLSVALLEMRSQAPYKEAFSDRFRQNDEYVRYMLKAVINHGIDEGVFTDVDAEHVTRSLLTIIDGARTRAVMLDDTEELETARQTASEYADAMLQ	soluble
MAHHHHHHMQICPEGKGDSAASELLRFSDADGAVVREVLLDALCRVVPASLFSDAAALENVDEAELCVLLRYATEIQEQNAAFFQVMGGSEVMSRPERAATTEGRRVLQHFTRLVLARCRHLLHHHDGPPPTLLSGDAENIPFVDLQLYADHNHPEVRVHQKIGRANAQGLRYAGLQSTASTTMAELLSRLESANQRMAAGARGLRCDLLRHVAQKAALGKSKLTLEDVTRALPLLAAQMGKTSEQQVKSTYERLLTAMSTTIAVALQQPQKPACILALLEGLAGCHYTPSSYKLLEMVMLRMMMRGAFTLSDAGRCLIAMLQVVGPQKVSQSVKQAIAMRVVAAVDARSDSTAADVLAVLRALRYSCYSSFASLVCLVSKSPLMGNTANWQPSEHVRYAVLLAAAAAALETEANSELGIAVSTTARERLLLGLSPTHPPSAVPPHSPACVGEDAYQECVTACAALDVSPVPPALTAWAHADIDARPVHSLCTPALAVSTMEALEAMSLAPSRWYTAYVNYLTDTLEQMQRRPLLEDDAETAVRCLFLQRAPGAVTRLASVLLEHEVDRLDQTLTRGAVVRDDARAPPVCTFQQRSLERQTSEGETETRLLRYCAALQHASREMLSTRSAEV	not soluble
MSSFSESALEKKLSELSNSQHSVQTLSLWLIHHRKHAGPIVSVWHRELRKAKSNRKLTFLYLANDVIQNSKRKGPEFTREFESVLVDAFSHVAREADEGCKKPLERLLNIWQERSVYGGEFIQQLKLSMEDSKSPPPKATEEKKSLKRTFQQIQEEEDDDYPGSYSPQDPSAGPLLTEELIKALQDLENAASGDATVRQKIASLPQEVQDVSLLEKITDKEAAERLSKTVDEACLLLAEYNGRLAAELEDRRQLARMLVEYTQNQKDVLSEKEKKLEEYKQKLARVTQVRKELKSHIQSLPDLSLLPNVTGGLAPLPSAGDLFSTD	soluble
AHHHHHHGSIIELDEFTRVEGNGKAEIVIENGEVKDARVKIVEGPRFFEILTLGRDYWDVPDLEARICAICYIAHSVASVRAIEKALGIDVPESVEKLRELALWGEIIESHALHLYLLALPDVFGYPDAISMIPRHGELVKEGLTIKAFGNAIRELIGGREIHGINIKPGGFGRYPSEEELEKIAEHSKSLIKFARRIVGIFASQEAGGAVGEVLMATSDYLWGDELIINGERVQYYEVDEVPVGYSFAKHSYYKGNPVFVGALPRLLLKGESIEGEAARMLEEYRDKLESKYVIYNNLAQAIELLYALERVPQLVEEILSEGIERGNGEISQESGEGVGYVEAPRGVLVHHYRIENGKVVWSNTITPTAFNQRLMELSLLEEAKRLYGSESEENMKKRLEVIVRAFDPCISCSVHFVKL	soluble
MIHTYEEAIGWIHSRLKFGIKPGLERMRWMLEELGNPERHIKCVHLAGTNGKGSTLTYMRYMLEDAKYKVGTFTSPYIETFNERISVNGTPIADEEITELVKMVKPVVEKLDETDLGEATEFEIITVMAICYFGKVNFCDVVLFETGLGGRFDSTNVIHPVLTIITNIGHDHMHILGNTLGEIAYEKAGIIKSGVPVITGVQDEEALQVIQKVAKENRANLYEMGNHFTALHKQSSENGEQFDFTCPFASFEDVRIAMKGSHQVGNAALALMAVMYVKTYLSFLIEEEEIRTGLQEAYWVGRFEKLQSNPDIIIDGAHNPEGIESLVKTVESHYKDKNVIVLFTALGDKQLHNMVGQLETIADEIIFTTFAFDRAISAGELASYAKKESKLVFENWKEAIDTKVEMIGENDVFIITGSLYFISEVRKYIREKN	not soluble
MGSDKIHHHHHHMGSSRKVIITCAVTGAIHTPSMSPYLPVTPDEVAQASIGAAEAGAAVIHLHARDPRDGRPTQDPAAFAEFLPRIKSNTDAVINLTTGGSPHMTVEERLRPATHYMPELASLNMGSMNFGLYPMLERFKEFAHGWEREHLERSRDLVFKNTFADIEFILKTCGGNGTRFEFECYDTSHLYNLAHFVDRKLATPPFFVQTVFGLLGGIGPHPEDLAHMRRTADRLFGADYVWSILGAGRHQIPLASIGAAQGANVRVGLEDSLWIAPGELAETNAAQVRKIRQVIEGLSLEVASPAEARTMLGLKGPQNVNF	not soluble
MGSDKIHHHHHHMRGKMIDDPIDLLRQYSRKLVRELGMLQLNKLAAKEQPSYWHTLIEINKEPNITISKLSQLLLVSLPTLSRIVNSLINDELVTVNEGLDKRERFLRVTDKGKEKVNYIDEYSNTKIKRAFHYLTDEEREQVITAIGKYAQALEQSRLIRDQIRILRLSTSRALRKQIVNMIENIQVNEFHLSITPEINASILKAEEEYCYYSSCNFWYAVDEQGGIIGSIGLKKLNHTEGEVKKFFIAPKYRGLGLAQKLMLTLVRNAMKHGFKKLFLGTVAQLNAARRFYEKNGFVLVNKNSLPKEFELCPLDTHFYYCETDKLDKSLRELI	not soluble
SNAMNNIRLLNQNDLDSYIELMKFGHHNYEWDRYYLENVSIDRLKTILSNHTDYWNIFGAFEDDELVATCTLKQMNYVGKCHKAILENNFVKNNDEIVNRELINHIIQYAKEQNIETLMIAIASNNISAKVFFSSIGFENLAFEKNASKIGNEYFDENWLIYSTTESSD	soluble
MGKRNLDETMNESTVSEANGDATAPTTEKDEYQALCELVNPIAQPLANRKLAKKVYKLIKKASAGDKTLREGIKDVQKELRRNEKGICILAGNVSPIDVYSHIPGICEEKEIPYVYIPSREQLGLAVGHRRPSILIFVKPSGDFKELYDEVAEALRHLTVEAA	not soluble
MLRVYHSNRLDVLEALMEFIVERERLDDPFEPEMILVQSTGMAQWLQMTLSQKFGIAANIDFPLPASFIWDMFVRVLPEIPKESAFNKQSMSWKLMTLLPQLLEREDFTLLRHYLTDDSDKRKLFQLSSKAADLFDQYLVYRPDWLAQWETGHLVEGLGEAQAWQAPLWKALVEYTHQLGQPRWHRANLYQRFIETLESATTCPPGLPSRVFICGISALPPVYLQALQALGKHIEIHLLFTNPCRYYWGDIKDPAYLAKLLTRQRRHSFEDRELPLFRDSENAGQLFNSDGEQDVGNPLLASWGKLGRDYIYLLSDLESSQELDAFVDVTPDNLLHNIQSDILELENRAVAGVNIEEFSRSDNKRPLDPLDSSITFHVCHSPQREVEVLHDRLLAMLEEDPTLTPRDIIVMVADIDSYSPFIQAVFGSAPADRYLPYAISDRRARQSHPVLEAFISLLSLPDSRFVSEDVLALLDVPVLAARFDITEEGLRYLRQWVNESGIRWGIDDDNVRELELPATGQHTWRFGLTRMLLGYAMESAQGEWQSVLPYDESSGLIAELVGHLASLLMQLNIWRRGLAQERPLEEWLPVCRDMLNAFFLPDAETEAAMTLIEQQWQAIIAEGLGAQYGDAVPLSLLRDELAQRLDQERISQRFLAGPVNICTLMPMRSIPFKVVCLLGMNDGVYPRQLAPLGFDLMSQKPKRGDRSRRDDDRYLFLEALISAQQKLYISYIGRSIQDNSERFPSVLVQELIDYIGQSHYLPGDEALNCDESEARVKAHLTCLHTRMPFDPQNYQPGERQSYAREWLPAASQAGKAHSEFVQPLPFTLPETVPLETLQRFWAHPVRAFFQMRLQVNFRTEDSEIPDTEPFILEGLSRYQINQQLLNALVEQDDAERLFRRFRAAGDLPYGAFGEIFWETQCQEMQQLADRVIACRQPGQSMEIDLACNGVQITGWLPQVQPDGLLRWRPSLLSVAQGMQLWLEHLVYCASGGNGESRLFLRKDGEWRFPPLAAEQALHYLSQLIEGYREGMSAPLLVLPESGGAWLKTCYDAQNDAMLDDDSTLQKARTKFLQAYEGNMMVRGEGDDIWYQRLWRQLTPETMEAIVEQSQRFLLPLFRFNQS	soluble
MGSDKIHHHHHHMLKSCPMNPRLDALHPYPFEKLRALLADAGKPTHDLPPINLSIGEPKHAAPACVGQAIAANLAGLSVYPSTKGEPALRQAISQWLSRRYSIPAPDPESEVLPVLGSREALFAFAQTVIDPSAGALVVCPNPFYQIYEGAALLAGATPYYVNADPARDFGCDWARVPDEVWRRTQLVFVCSPGNPAGNVMSLEEWRTLFELSDRHGFVIAADECYSEIYLDEDNPPLGSLQAARRLGRDRYTNLVAFSSLSKRSNVPGMRSGFVAGDAALLARFLLYRTYHGSAMSPVVSAASIAAWSDETHVQENRRQYRAKFEAVLPILQNVLDVRAPQASFYLWAGTPGSDTAFARELYGRTGVTVLPGSLLAREAHNANPGQGRIRIALVAPLDQCVQAAERIAHFARTSI	not soluble
